Source: patent publication US20240261333A1, “NOVEL TARGETS FOR ENHANCING ANTI-TUMOR IMMUNITY” (THE BROAD INSTITUTE, INC., priority 2021, published 2024)

Tests used:
MYO1C (human) [1] = target: MYO1C (human) (UniProt O00159); experiment: co-IP with control IgG, mass spectrometry; lysate of cells with C-FLAG B3GNT2
ILF3 (human) [2] = target: ILF3 (human) (UniProt Q12906); experiment: as above
SLC25A5 (human) = SLC25A5 (human) (UniProt P05141); experiment: as above
RPS27 (human) = RPS27 (human) (UniProt P42677); experiment: as above
RPS4X (human) [3] = target: RPS4X (human) (UniProt P62701); experiment: as above
ZC3HAV1 (human) [4] = target: ZC3HAV1 (human) (UniProt Q7Z2W4); experiment: as above
ARHGEF2 (human) = ARHGEF2 (human) (UniProt Q92974); experiment: as above
DNAJB11 (human) = DNAJB11 (human) (UniProt Q9UBS4); experiment: co-IP with control IgG, mass spectrometry; lysate of cells with N-FLAG B3GNT2
CCT7 (human) = CCT7 (human) (UniProt Q99832); experiment: as above
SPRR1A (human) = SPRR1A (human) (UniProt P35321); experiment: as above
MYO1C (human) [5] = target: MYO1C (human) (UniProt O00159); experiment: as above
RPL32 (human) = RPL32 (human) (UniProt P62910); experiment: as above
MARS (human) = MARS (human) (UniProt P56192); experiment: as above
CTHRC1 (human) = CTHRC1 (human) (UniProt Q96CG8); experiment: as above
ILF3 (human) [6] = target: ILF3 (human) (UniProt Q12906); experiment: as above
SEL1L (human) = SEL1L (human) (UniProt Q9UBV2); experiment: as above
ARF4 (human) = ARF4 (human) (UniProt P18085); experiment: as above
EIF4A1 (human) = EIF4A1 (human) (UniProt P60842); experiment: as above
NPM1 (human) = NPM1 (human) (UniProt P06748); experiment: as above
HSPD1 (human) = HSPD1 (human) (UniProt P10809); experiment: as above
HADHA (human) = HADHA (human) (UniProt P40939); experiment: as above
RPS4X (human) [7] = target: RPS4X (human) (UniProt P62701); experiment: as above
PSMD4 (human) = PSMD4 (human) (UniProt P55036); experiment: as above
PIGR (human) = PIGR (human) (UniProt P01833); experiment: as above
RPL26 (human) = RPL26 (human) (UniProt P61254); experiment: as above
MAGT1 (human) = MAGT1 (human) (UniProt Q9H0U3); experiment: as above
STAU2 (human) = STAU2 (human) (UniProt Q9NUL3); experiment: as above
TOR1AIP2 (human) = TOR1AIP2 (human) (UniProt Q8NFQ8); experiment: as above
GANAB (human) = GANAB (human) (UniProt Q14697); experiment: as above
RARS (human) = RARS (human) (UniProt P54136); experiment: as above
UGGT1 (human) = UGGT1 (human) (UniProt Q9NYU2); experiment: as above
IPO13 (human) = IPO13 (human) (UniProt O94829); experiment: as above
SLC27A4 (human) = SLC27A4 (human) (UniProt Q6P1M0); experiment: as above
GAPDH (human) = GAPDH (human) (UniProt P04406); experiment: as above
RRP12 (human) = RRP12 (human) (UniProt Q5JTH9); experiment: as above
ZC3HAV1 (human) [8] = target: ZC3HAV1 (human) (UniProt Q7Z2W4); experiment: as above
SDF4 (human) = SDF4 (human) (UniProt Q9BRK5); experiment: as above

Chain of MYO1C (human) (O00159 other isoform, or with tags, fused parts or gaps limits assumed): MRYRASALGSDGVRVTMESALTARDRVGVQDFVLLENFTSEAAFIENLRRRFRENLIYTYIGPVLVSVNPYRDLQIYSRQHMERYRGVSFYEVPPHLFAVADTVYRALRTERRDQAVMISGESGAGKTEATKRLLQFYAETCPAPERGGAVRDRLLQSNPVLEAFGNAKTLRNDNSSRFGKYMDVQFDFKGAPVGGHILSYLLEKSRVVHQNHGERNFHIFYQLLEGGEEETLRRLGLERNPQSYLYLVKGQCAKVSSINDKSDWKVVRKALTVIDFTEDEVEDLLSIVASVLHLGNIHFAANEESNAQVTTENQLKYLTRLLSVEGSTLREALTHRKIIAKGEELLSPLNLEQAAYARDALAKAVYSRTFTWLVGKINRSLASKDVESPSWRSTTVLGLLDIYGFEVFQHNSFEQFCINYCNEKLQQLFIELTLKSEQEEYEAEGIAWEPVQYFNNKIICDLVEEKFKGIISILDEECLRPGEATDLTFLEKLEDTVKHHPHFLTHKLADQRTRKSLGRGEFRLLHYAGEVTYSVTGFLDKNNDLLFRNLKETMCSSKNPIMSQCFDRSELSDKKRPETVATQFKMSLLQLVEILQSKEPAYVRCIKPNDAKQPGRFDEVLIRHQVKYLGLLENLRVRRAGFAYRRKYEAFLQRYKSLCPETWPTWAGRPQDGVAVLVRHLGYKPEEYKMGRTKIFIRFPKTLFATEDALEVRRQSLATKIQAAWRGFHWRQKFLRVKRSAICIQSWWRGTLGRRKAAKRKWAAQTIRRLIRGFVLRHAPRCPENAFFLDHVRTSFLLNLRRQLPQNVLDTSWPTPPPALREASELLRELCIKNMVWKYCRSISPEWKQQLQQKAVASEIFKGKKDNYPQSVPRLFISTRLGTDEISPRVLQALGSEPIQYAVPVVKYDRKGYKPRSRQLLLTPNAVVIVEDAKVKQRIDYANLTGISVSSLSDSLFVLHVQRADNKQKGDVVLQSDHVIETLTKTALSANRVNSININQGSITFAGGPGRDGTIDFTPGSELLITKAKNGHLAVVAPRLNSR
Chain of RARS (human) (P54136 whole entry): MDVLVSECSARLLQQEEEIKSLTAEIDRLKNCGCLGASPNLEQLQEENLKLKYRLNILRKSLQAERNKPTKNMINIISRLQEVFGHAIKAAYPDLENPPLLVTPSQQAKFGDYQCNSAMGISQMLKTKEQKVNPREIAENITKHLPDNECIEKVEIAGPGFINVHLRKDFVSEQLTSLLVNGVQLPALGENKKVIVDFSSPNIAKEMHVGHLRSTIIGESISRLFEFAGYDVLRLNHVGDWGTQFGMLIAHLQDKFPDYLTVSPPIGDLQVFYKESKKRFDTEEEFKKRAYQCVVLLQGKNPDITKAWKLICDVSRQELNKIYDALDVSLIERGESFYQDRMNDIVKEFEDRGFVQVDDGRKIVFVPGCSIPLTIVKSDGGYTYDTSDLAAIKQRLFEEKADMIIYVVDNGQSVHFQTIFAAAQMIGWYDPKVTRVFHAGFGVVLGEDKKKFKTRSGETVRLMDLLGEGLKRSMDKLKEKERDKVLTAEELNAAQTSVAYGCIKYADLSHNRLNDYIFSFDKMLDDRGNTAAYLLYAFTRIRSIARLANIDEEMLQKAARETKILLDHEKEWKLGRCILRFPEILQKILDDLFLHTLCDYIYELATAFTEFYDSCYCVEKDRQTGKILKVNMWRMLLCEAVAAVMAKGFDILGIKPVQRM
Chain of MAGT1 (human) (Q9H0U3 30-335 limits assumed): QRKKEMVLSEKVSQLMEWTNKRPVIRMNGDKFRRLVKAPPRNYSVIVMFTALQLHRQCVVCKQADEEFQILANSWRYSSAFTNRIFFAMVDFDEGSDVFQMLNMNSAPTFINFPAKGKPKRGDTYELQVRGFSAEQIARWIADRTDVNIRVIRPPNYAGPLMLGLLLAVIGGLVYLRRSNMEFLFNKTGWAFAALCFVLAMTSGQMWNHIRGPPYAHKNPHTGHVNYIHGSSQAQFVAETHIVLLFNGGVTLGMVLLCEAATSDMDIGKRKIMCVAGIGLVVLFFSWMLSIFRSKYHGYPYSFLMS
Chain of PSMD4 (human) (P55036 whole entry): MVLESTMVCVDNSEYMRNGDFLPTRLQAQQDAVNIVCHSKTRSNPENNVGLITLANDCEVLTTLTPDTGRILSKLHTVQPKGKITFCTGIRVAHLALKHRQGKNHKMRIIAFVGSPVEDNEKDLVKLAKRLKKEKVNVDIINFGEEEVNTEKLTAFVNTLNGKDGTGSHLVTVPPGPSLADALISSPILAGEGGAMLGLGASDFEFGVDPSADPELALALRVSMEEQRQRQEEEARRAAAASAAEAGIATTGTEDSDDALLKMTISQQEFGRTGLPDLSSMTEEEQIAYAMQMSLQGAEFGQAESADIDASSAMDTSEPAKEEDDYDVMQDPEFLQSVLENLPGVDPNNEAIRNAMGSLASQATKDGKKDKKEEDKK
Chain of CTHRC1 (human) (Q96CG8 other isoform, or with tags, fused parts or gaps limits assumed): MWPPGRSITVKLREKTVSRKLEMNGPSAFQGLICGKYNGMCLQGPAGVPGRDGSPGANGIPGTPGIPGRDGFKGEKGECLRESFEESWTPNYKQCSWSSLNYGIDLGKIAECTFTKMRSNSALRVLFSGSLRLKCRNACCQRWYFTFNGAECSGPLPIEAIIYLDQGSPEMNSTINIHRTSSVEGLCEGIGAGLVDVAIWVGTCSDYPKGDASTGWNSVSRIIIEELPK
Chain of TOR1AIP2 (human) (Q8NFQ8 2-470 limits assumed): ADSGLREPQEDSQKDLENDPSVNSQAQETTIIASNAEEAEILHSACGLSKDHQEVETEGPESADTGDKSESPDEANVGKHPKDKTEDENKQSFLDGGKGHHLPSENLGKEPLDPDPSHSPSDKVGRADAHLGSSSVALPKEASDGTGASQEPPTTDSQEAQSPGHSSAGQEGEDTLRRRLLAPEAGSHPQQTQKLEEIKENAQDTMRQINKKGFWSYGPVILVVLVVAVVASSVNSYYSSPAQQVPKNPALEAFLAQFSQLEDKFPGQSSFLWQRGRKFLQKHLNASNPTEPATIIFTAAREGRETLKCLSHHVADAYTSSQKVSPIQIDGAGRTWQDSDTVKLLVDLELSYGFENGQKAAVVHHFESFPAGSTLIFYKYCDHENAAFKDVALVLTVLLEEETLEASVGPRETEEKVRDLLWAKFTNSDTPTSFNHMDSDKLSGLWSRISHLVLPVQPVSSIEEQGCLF
Chain of DNAJB11 (human) (Q9UBS4 23-358 limits assumed): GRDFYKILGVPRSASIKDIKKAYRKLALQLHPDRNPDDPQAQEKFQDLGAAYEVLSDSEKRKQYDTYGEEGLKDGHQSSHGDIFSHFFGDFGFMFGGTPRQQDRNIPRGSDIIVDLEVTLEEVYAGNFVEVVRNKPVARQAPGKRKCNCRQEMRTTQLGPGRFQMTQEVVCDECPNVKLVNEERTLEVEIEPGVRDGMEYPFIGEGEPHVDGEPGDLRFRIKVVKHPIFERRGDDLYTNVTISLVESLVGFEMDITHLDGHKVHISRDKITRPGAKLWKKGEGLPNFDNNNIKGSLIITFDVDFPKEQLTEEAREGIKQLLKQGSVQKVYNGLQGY
Chain of UGGT1 (human) (Q9NYU2 43-1555 limits assumed): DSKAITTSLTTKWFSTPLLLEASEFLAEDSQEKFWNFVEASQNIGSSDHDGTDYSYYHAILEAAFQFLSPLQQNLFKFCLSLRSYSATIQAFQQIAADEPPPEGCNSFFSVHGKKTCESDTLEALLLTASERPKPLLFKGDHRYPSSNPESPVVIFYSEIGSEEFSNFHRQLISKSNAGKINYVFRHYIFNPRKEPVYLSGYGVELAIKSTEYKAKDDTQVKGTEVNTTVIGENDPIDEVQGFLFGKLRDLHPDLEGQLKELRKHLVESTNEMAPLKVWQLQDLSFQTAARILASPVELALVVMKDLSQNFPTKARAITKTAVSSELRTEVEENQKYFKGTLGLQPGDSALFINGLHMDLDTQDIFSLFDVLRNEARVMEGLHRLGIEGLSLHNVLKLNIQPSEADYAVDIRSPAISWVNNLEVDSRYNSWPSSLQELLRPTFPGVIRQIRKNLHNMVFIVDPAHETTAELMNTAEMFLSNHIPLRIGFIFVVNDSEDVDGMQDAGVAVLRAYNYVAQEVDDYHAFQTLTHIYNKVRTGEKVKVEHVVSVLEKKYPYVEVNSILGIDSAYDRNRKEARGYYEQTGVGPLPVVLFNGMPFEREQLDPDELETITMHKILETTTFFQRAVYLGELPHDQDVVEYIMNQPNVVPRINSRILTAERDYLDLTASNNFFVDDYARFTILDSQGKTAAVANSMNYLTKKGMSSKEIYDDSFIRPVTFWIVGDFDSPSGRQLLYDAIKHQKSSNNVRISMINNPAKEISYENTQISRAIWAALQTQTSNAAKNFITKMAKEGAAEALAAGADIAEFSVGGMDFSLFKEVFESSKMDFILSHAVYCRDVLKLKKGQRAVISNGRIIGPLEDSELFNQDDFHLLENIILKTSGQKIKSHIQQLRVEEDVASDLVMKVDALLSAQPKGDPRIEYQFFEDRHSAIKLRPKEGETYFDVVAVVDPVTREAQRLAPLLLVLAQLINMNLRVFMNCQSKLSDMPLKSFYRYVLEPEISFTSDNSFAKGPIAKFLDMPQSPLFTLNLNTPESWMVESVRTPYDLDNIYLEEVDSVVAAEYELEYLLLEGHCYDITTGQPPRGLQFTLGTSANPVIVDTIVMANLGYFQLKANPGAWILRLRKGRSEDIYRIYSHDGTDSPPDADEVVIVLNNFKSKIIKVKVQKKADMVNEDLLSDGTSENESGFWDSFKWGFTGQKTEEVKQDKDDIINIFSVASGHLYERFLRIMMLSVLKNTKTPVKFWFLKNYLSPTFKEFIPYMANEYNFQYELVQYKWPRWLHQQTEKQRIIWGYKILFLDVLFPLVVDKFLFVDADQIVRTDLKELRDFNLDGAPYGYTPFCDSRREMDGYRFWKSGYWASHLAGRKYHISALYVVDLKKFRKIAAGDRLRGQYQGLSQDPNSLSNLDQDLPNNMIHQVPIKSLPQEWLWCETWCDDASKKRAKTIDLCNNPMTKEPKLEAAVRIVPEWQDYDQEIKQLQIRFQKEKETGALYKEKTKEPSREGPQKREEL
Chain of SPRR1A (human) (P35321 whole entry): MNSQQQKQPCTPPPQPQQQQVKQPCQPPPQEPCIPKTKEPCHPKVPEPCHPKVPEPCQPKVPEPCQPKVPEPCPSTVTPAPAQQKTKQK

**Q.** What does the source list for “IgG control (Millipore Sigma 12-371) (antibody)”?
**A.** co-IP mass spectrometry count (MYO1C (human) [1]): 0; co-IP mass spectrometry count (ILF3 (human) [2]): 0; co-IP mass spectrometry count (SLC25A5 (human)): 3; co-IP mass spectrometry count (RPS27 (human)): 0; co-IP mass spectrometry count (RPS4X (human) [3]): 7; co-IP mass spectrometry count (ZC3HAV1 (human) [4]): 0; co-IP mass spectrometry count (ARHGEF2 (human)): 0; co-IP mass spectrometry count (DNAJB11 (human)): 0; co-IP mass spectrometry count (CCT7 (human)): 0; co-IP mass spectrometry count (SPRR1A (human)): 0; co-IP mass spectrometry count (MYO1C (human) [5]): 0; co-IP mass spectrometry count (RPL32 (human)): 0; co-IP mass spectrometry count (MARS (human)): 0; co-IP mass spectrometry count (CTHRC1 (human)): 0; co-IP mass spectrometry count (ILF3 (human) [6]): 0; co-IP mass spectrometry count (SEL1L (human)): 0; co-IP mass spectrometry count (ARF4 (human)): 0; co-IP mass spectrometry count (EIF4A1 (human)): 0; co-IP mass spectrometry count (NPM1 (human)): 0; co-IP mass spectrometry count (HSPD1 (human)): 0; co-IP mass spectrometry count (HADHA (human)): 0; co-IP mass spectrometry count (RPS4X (human) [7]): 12; co-IP mass spectrometry count (PSMD4 (human)): 0; co-IP mass spectrometry count (PIGR (human)): 0; co-IP mass spectrometry count (RPL26 (human)): 5; co-IP mass spectrometry count (MAGT1 (human)): 0; co-IP mass spectrometry count (STAU2 (human)): 0; co-IP mass spectrometry count (TOR1AIP2 (human)): 0; co-IP mass spectrometry count (GANAB (human)): 0; co-IP mass spectrometry count (RARS (human)): 0; co-IP mass spectrometry count (UGGT1 (human)): 0; co-IP mass spectrometry count (IPO13 (human)): 0; co-IP mass spectrometry count (SLC27A4 (human)): 0; co-IP mass spectrometry count (GAPDH (human)): 11; co-IP mass spectrometry count (RRP12 (human)): 0; co-IP mass spectrometry count (ZC3HAV1 (human) [8]): 0; co-IP mass spectrometry count (SDF4 (human)): 0
